The target of test [1] is T1, human DLL4 extracellular domain (human, UniProt Q9NR61 27-529).
T1 construct: purified recombinant ECD; biotin-labelled or 6xHis-tagged depending on the assay; also called huDLL4 ECD; hu DLL4 ECD
Nature of the test: SPR (Biacore). As to the method:
(§1) The BIACORE® surface plasmon resonance assay (Biacore, Inc., Piscataway, N.J., US) determines the affinity of antibodies with kinetic measurements of on-rate and off-rate constants. Binding of DLL4 antibodies to a purified recombinant DLL4 extracellular domain (ECD) was determined by surface plasmon resonance-based measurements with a Biacore® instrument (either a Biacore 2000, Biacore 3000, or Biacore T100; GE Healthcare, Piscataway, N.J., US) using running buffer HBS-EPB (10 mM HEPES [pH 7.4], 150 mM NaCl, 3 mM EDTA, 0.1 mg/ml BSA and 0.005% surfactant P20) at 25° C. For example, approximately 9000 RU of goat anti-human Fc specific polyclonal antibody (Thermo Fisher Scientific Inc., Rockford, Ill., US) diluted in 10 mM sodium acetate (pH 4.5) is directly immobilized across a CMS research grade biosensor chip using a standard amine coupling kit according to manufacturer's instructions and procedures at 25 μg/ml. Unreacted moieties on the biosensor surface were blocked with ethanolamine. For kinetic analysis, rate equations derived from the 1:1 Langmuir binding model were fitted simultaneously to multiple antigen injections (using global fit analysis) with the use of Scrubber 2 (BioLogic Software), Biacore Biaevaluation 4.0.1 software or Biacore T100 Evaluation software. Purified antibodies were diluted in running buffer for capture across goat anti-human Fc reaction surfaces. Antibodies to be captured as a ligand (1 μg/ml) were injected over reaction matrices at a flow rate of 10 μl/min. During the assay, all measurements were referenced against the capture surface alone (i.e., with no captured anti-DLL4 antibody). […] The equilibrium dissociation constant KD (M) of the reaction between antibodies and the target antigen was then calculated from the kinetic rate constants by the following formula: KD=Koff/Kₒₙ. Binding was recorded as a function of time and kinetic rate constants were calculated.

In test [2] the target is T2, cynomolgus monkey DLL4 extracellular domain (cynomolgus monkey).
T2 construct: extracellular domain; also called cynoDLL4 ECD; Cyno DLL4
The test is described as follows: SPR (Biacore). As to the method: as §1

Test [3] addresses T1, human DLL4 extracellular domain. The test is described as follows: binding ELISA, DLL4 ECD.
In test [4] the target is T3, mouse DLL4 extracellular domain (mouse, UniProt Q9JI71 27-532).
T3 construct: extracellular domain; also called muDLL4 ECD; murine DLL4
Nature of the test: binding ELISA, DLL4 ECD.

In test [5] the target is T4, human DLL4, full length, on cells (human, UniProt Q9NR61 27-685).
T4 construct: also called huDLL4 cells; human DLL4-293G
Nature of the test: FACS, DLL4 cells. Here is the method:
(§2) Stable cell lines overexpressing cell-surface DLL4 were harvested from tissue culture flasks, washed four times and resuspended in phosphate buffered saline (PBS) containing 1% bovine serum albumin and 1 mM CaCl₂ (FACS buffer). 1.5×10⁵ cells were incubated with antibodies at various concentrations in FACS buffer for 60 minutes on ice. […] Following an incubation on ice (4° C., 60 minutes), cells were washed three times and resuspended in FACS buffer. Fluorescence was measured using a Becton Dickinson FACSCalibur-HTS (Becton Dickinson, San Jose, Calif., US). Data were analyzed using Graphpad Prism software and EC₅₀ values were reported as the concentration of antibody to achieve 50% of maximal DLL4 antibodies binding to DLL4 expressing cells. […]

Test [6] has as its target T5, mouse DLL4 on cells (mouse, UniProt Q9JI71 27-686).
T5 construct: whole, on cells; also called mouse DLL4-293G; mu DLL4 cells
Nature of the test: FACS, DLL4 cells. Here is the method: as §2

Test [7] deals with T3, mouse DLL4 extracellular domain. The test is described as follows: SPR (Biacore). In outline:
(§3)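 Purified anti-DLL4 antibodies (1 μg/ml) captured on immobilized goat anti-human Fc, with DLL4 ECD injected as analyte; HBS-EPB running buffer (pH 7.4), 25° C, referenced against capture-only surface. On/off rates from global 1:1 Langmuir fit; KD = Koff/Kon.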

Test [8] has as its target T4, human DLL4, full length, on cells. Nature of the test: competition FACS: huNotch-1-biotin to DLL4 cells. As to the method:
(§4) Notch blocking assay: Briefly, stable cell lines overexpressing cell-surface DLL4 were harvested from tissue culture flasks and re-suspended in phosphate buffered saline (PBS) containing 1% bovine serum albumin and 1 mM CaCl₂ (FACS buffer). HEK293G-DLL4 cells were dispensed into 96-well plate (v-bottom) at 1.5×10⁵ cells/well in FACS buffer. After spinning down cells and discarding the supernatant, 50 μL of purified IgG with appropriate dilution were added to each well, and incubated on ice at 4° C. for 60 minutes, followed by addition of 50 μL/well of Notch1-biotin at 0.2 μg/mL for human DLL4-293G or 2.0 μg/mL for mouse DLL4-293G (1.0 or 0.1 μg/mL final) for an additional 1 hour incubation ice at 4° C. After washing the cells two times with FACS buffer, 50 μL of R-phycoerythrin-conjugated streptavidin (1:150 dilution in FACS buffer) (Jackson ImmunoResearch, West Grove, Pa., Cat.#016-110-084) were added. Following an incubation on ice (4° C., 60 minutes), cells were washed three times and resuspended in FACS buffer. Fluorescence was measured using a Becton Dickinson FACSCalibur-HTS (Becton Dickinson, San Jose, Calif.). Data were analyzed using Graphpad Prism software, and IC₅₀ values were reported as the concentration of antibody to achieve 50% reduction of Notch1 bound to DLL4 expressing cells. […]

Test [9] has as its target T5, mouse DLL4 on cells. The test is described as follows: competition FACS: huNotch-1-biotin to DLL4 cells. As to the method: as §4
Test [10] deals with T4, human DLL4, full length, on cells. Nature of the test: cell-based or functional assay.
For test [11], the target named is T6, rat DLL4 extracellular domain (rat, UniProt D3ZHH1 28-530).
T6 construct: extracellular domain; also called ratDLL4 ECD
The test is described as follows: SPR (Biacore). A digest of the protocol: as §3

The target in test [12] is T4, human DLL4, full length, on cells. The test is described as follows: competition FACS: huNotch-1 to DLL4 cells. Here is the method:
(§5) Notch blocking assay: Briefly, stable cell lines overexpressing cell-surface DLL4 were harvested from tissue culture flasks and re-suspended in phosphate buffered saline (PBS) containing 1% bovine serum albumin and 1 mM CaCl₂ (FACS buffer). HEK293G-DLL4 cells were dispensed into 96-well plate (v-bottom) at 1.5×10⁵ cells/well in FACS buffer. After spinning down cells and discarding the supernatant, 50 μL of purified IgG with appropriate dilution were added to each well, and incubated on ice at 4° C. for 60 minutes, followed by addition of 50 μL/well of Notch1-biotin at 0.2 μg/mL for human DLL4-293G or 2.0 μg/mL for mouse DLL4-293G (1.0 or 0.1 μg/mL final) for an additional 1 hour incubation ice at 4° C. After washing the cells two times with FACS buffer, 50 μL of R-phycoerythrin-conjugated streptavidin (1:150 dilution in FACS buffer) (Jackson ImmunoResearch, West Grove, Pa., Cat.#016-110-084) were added. Following an incubation on ice (4° C., 60 minutes), cells were washed three times and resuspended in FACS buffer. Fluorescence was measured using a Becton Dickinson FACSCalibur-HTS (Becton Dickinson, San Jose, Calif.). Data were analyzed using Graphpad Prism software, and IC₅₀ values were reported as the concentration of antibody to achieve 50% reduction of Notch1 bound to DLL4 expressing cells.

For test [13], the target named is T5, mouse DLL4 on cells. Nature of the test: competition FACS: huNotch-1 to DLL4 cells. Here is the method:
as §5

In test [14] the target is T4, human DLL4, full length, on cells. Nature of the test: FACS, DLL4 cells. The source holds these as a separate data set.
In test [15] the target is T5, mouse DLL4 on cells. Nature of the test: FACS, DLL4 cells. This is another data set of the same source.

Where two headings read alike, the source gives them in different places.

This is an account of results in patent US20110217237A1 (AbbVie / Abbott, published 2011).

T3 sequence (Q9JI71 27-532): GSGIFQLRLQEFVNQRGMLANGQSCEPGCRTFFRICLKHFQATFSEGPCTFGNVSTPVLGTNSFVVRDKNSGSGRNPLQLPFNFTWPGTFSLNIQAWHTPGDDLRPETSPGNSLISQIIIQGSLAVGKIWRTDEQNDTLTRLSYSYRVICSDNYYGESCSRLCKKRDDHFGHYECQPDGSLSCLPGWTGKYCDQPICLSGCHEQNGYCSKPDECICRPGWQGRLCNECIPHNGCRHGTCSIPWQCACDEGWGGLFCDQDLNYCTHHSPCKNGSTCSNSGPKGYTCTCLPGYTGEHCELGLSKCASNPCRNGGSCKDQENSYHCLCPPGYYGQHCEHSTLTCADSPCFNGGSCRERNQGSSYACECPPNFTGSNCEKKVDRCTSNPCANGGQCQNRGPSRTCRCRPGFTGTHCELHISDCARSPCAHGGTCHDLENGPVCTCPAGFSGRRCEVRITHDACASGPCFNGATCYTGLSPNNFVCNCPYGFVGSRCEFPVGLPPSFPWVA
T4 sequence (Q9NR61 27-685 limits assumed): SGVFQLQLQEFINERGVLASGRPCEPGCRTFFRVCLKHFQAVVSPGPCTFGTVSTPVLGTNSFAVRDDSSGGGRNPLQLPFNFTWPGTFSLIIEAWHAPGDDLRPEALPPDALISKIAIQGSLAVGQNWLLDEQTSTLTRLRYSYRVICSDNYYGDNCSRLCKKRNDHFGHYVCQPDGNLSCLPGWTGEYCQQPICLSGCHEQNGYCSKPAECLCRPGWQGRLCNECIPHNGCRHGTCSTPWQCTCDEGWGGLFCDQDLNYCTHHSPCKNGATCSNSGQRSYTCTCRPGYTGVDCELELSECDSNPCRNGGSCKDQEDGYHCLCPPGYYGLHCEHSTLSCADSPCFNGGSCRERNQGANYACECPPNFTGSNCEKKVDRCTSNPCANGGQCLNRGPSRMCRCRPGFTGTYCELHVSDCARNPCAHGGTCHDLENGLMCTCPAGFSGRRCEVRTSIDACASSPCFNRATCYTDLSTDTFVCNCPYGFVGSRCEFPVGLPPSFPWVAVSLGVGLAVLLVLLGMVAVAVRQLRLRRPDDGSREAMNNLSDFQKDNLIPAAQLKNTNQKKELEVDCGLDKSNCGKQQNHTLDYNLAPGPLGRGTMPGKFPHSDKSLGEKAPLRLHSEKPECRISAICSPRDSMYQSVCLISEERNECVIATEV
T1 sequence (Q9NR61 27-529 limits assumed): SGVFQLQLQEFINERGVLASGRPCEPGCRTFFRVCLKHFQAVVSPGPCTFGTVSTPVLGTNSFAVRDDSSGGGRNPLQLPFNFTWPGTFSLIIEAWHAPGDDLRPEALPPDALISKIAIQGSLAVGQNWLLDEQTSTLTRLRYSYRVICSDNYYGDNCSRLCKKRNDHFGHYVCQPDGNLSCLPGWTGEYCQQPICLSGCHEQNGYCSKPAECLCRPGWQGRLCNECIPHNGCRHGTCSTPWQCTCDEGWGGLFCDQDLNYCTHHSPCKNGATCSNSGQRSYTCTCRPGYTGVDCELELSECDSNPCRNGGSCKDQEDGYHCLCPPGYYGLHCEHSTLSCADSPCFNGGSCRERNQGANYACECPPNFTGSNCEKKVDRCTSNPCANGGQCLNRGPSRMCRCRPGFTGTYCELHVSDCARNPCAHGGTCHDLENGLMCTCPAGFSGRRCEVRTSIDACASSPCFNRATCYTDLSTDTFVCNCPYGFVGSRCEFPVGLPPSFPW
T5 sequence (Q9JI71 27-686): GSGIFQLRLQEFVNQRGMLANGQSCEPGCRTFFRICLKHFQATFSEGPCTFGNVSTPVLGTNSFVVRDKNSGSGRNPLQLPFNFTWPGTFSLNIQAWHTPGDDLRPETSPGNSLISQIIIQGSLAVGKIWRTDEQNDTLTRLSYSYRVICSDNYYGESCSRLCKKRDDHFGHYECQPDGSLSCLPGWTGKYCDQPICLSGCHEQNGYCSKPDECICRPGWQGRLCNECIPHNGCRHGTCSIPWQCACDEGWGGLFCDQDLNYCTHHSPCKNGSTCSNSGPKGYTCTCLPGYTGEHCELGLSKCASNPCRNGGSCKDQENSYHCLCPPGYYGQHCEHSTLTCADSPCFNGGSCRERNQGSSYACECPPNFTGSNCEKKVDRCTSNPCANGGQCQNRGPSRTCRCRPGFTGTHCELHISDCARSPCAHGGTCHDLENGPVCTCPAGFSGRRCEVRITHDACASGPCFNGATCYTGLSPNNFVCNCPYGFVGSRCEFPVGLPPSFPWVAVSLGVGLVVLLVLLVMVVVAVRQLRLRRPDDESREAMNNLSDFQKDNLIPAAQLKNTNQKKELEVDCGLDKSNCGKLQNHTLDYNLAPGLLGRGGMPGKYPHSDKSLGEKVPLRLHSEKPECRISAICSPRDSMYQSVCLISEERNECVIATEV
T6 sequence (D3ZHH1 28-530): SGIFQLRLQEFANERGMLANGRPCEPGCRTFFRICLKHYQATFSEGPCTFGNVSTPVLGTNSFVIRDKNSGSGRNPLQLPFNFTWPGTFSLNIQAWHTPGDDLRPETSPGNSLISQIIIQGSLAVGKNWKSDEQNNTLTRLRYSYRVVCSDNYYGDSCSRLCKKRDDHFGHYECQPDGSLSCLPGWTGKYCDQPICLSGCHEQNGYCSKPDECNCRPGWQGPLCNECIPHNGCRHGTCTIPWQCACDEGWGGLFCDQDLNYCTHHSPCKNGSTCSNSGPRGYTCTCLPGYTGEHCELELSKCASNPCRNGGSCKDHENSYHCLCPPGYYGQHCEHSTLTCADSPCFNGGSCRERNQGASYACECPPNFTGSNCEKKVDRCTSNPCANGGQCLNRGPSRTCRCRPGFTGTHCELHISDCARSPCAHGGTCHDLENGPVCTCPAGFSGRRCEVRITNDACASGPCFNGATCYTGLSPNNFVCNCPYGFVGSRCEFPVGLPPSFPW

B1: 32C7 rat anti-DLL4 monoclonal antibody (antibody, rat IgG2a, V domains shown)
VH: EVQLVESGGGLVQPGRSLKLSCLASGFPFSSVWMTWIRQAPGKGLEWIATITNSGASTYYSASVKGRFTISRDNVKSTLYLQMTSLGSEDTATYYCTRVGTSFDYWGQGVMVTVSS
VL: DIQMTQSPASLSASLGETVTIECRASDDIYNGLAWFQQKPGKSPQLLIYDANTLHTGVPSRFSGSGSGTQFSLKINSLQSEDVASYFCQQFYDYPPYTFGAGTKLELKR
notes: rat IgG2a/k hybridoma mAb; also called MC10-32C7.5A4
Take B1: the Kd in [1] is 0.03 nM; in test [2], 0.03 nM; in test [7], 88 nM. Moreover, the dissociation rate constant (koff) was 7e-06 s⁻¹ in test [1], 6.3e-06 s⁻¹ in test [2] and 0.0041 s⁻¹ in test [7]. In addition, the kon in test [1] was 280000 M⁻¹ s⁻¹; in test [2], 220000 M⁻¹ s⁻¹; in [7], 48000 M⁻¹ s⁻¹. The concentration for a half-maximal effect (EC50) was 0.08 nM in test [3], 0.15 nM in [4], 3.1 nM in test [5] and 0.8 nM with mouse DLL4 on cells [6].

B2: 15D6 rat anti-DLL4 monoclonal antibody (antibody, rat IgG2a, V domains shown)
VH: EVQLQQSGPELAKPGSSVKISCKASGYTFTSSYISWIKQTTGQGLEYIGYINTGSGGTDYNEKFKDKATLTVDKSSRTVFMQLSSLTPGDSAVYYCAKSILLGSTYYLDYWGQGVMVTVSS
VL: DTVLTQSPALAVSLGQRVTISCKASRSLSSPMYSYIYWYQQKLGQQPRLLIYRASTLASGVPARFSGSGSGTDFTLNIDPVEADDIATYFCQQSWSDPFTFGSGTKLEIKR
notes: rat IgG2a/K hybridoma mAb; also called MC13-15D6.1G7
With B2, the equilibrium dissociation constant (Kd) came out at 9.2 nM in [1], 14.9 nM in test [2] and 0.7 nM in test [7]. Besides, the results for the koff in test [1], in test [2] and in test [7] were 0.001 s⁻¹, 0.00083 s⁻¹ and 5.1e-05 s⁻¹, respectively. In addition, the results for the kon in test [1], in [2] and in test [7] were 110000 M⁻¹ s⁻¹, 56000 M⁻¹ s⁻¹ and 74000 M⁻¹ s⁻¹, respectively. The results for the IC50 (in test [8]; with mouse DLL4 on cells [9]) were 25 nM and 1.5 nM, respectively. The “Notch activation Inhibition (IC50, nM), huDLL4 cell/Notch reporter cells” value in [10] is 3.2 nM. Besides, the 50% effective concentration (EC50) in test [5] stood at 15 nM; with mouse DLL4 on cells [6], 1.6 nM. The binding result in test [11] was “no binding”.

B3: 14A11 chimeric antibody (antibody, human IgG1, V domains shown)
VH: EVQLQQSGPELAKPGSSVKISCKASGYTFTNSYISWIKQTTGQGLEYVGYINTGSGGADYNEKFKGKATLTVDKSSRTAFMQLSSLTPGDSAVYYCAKSILLGSTCYFDYWGQGVLVTVSS
VL: NTVLTQSPALAVSLGQRVTISCKASRSVSSPMYSYIYWYQQKPGQQPKLLIYRASTLASGVPARFSGSGSGTDFTLNIDPVEADDIATYFCQQSWSDPFTFGSGTKLEIKR
notes: also called Chimera of 14A11
Consider B3, for which the results for the concentration for half-maximal inhibition (IC50) (in test [12]; in the test with mouse DLL4 on cells [13]) were 4.03 nM and 1.39 nM, respectively. Besides, the results for the EC50 (in [14]; with mouse DLL4 on cells [15]) were 1.61 nM and 2.14 nM, respectively.

B4: 15D6 chimeric antibody (antibody, human IgG1, V domains shown)
VH: EVQLQQSGPELAKPGSSVKISCKASGYTFTSSYISWIKQTTGQGLEYIGYINTGSGGTDYNEKFKDKATLTVDKSSRTVFMQLSSLTPGDSAVYYCAKSILLGSTYYLDYWGQGVMVTVSS
VL: DTVLTQSPALAVSLGQRVTISCKASRSLSSPMYSYIYWYQQKLGQQPRLLIYRASTLASGVPARFSGSGSGTDFTLNIDPVEADDIATYFCQQSWSDPFTFGSGTKLEIKR
notes: also called Chimera of 15D6
In the case of B4, the IC50 in test [12] is 10.5 nM; in the test with mouse DLL4 on cells [13], 1.49 nM. The EC50 in [14] amounted to 1.72 nM; with mouse DLL4 on cells [15], 1.82 nM.

B5: 37D10 chimeric antibody (antibody, human IgG1, V domains shown)
VH: AVQLVESGGGLVQPKESLKISCAASGFTFSNAAMYWVRLAPGKGLEWVARIRTKPNNYATYYAESVKGRFTISRDDSKSMVYVQMDNLKTEDTAMYYCTAAPWRDSYAHVYWGQGVMVTVSS
VL: DIQMTQSPPVLSASVGDRVTLSCKASQNIHKNLDWYQQKHGDAPKLLIYYTDHLQTGVPSRFSGSGSATDYTLTISSLQPEDVATYYCYQYNGGPFTFGSGTKLEIKR
notes: also called Chimera of 37D10
As to B5, the values for the IC50 (in test [12]; in the test with mouse DLL4 on cells [13]) were 5.95 nM and 4.39 nM, respectively. Moreover, the figures for the EC50 (in [14]; in the test with mouse DLL4 on cells [15]) were 2.32 nM and 0.99 nM, respectively.
